Laboratory results taken from article PMC7688924, “α-Galactosidase and Sucrose-Kinase Relationships in a Bi-functional AgaSK Enzyme Produced by the Human Gut Symbiont Ruminococcus gnavus E1” (Frontiers in Microbiology, 2020).

B1: RgAgaSK (Mediterraneibacter gnavus) (protein)
chain: MAIIYNPNKKIFTLHTAHTTYQMQVDPLGYLLHLYYGEKTNSSMDYVLTYADRGFSGNPYAAGMDRTYSLDALPQEYPSLGTGDYRNIALNIKNEKGVESADLLFKSYEIRNGKYRLQGLPAVWADEKEAQTLEIVLADENAQVEVHLLYGVLEENDVITRSVRIKNTGTGQITIEKAAAACLDFVQGEFDVLRFYGKHAMERNLERTPLGHGTIAFGSRRGTSSHQYNPAVILAEKGTTETAGSCYGMLFVYSGNFSCEAEKDQFNQTRLLLGLNEELFSYPLASGETFTVPEVILSYSAEGLSALSQQYHNCIRNHVCRSKYVHMQRPVLINSWEAAYFDFTGDTIVDLAKEAASLGIDMVVMDDGWFGKRNDDNSSLGDWQVNETKLGGSLAELITRVHEQGMKFGIWIEPEMINEDSDLYRAHPDWAIRIQGKKPVRSRNQLLLDFSRKEVRDCVFDQICVVLDQGKIDYVKWDMNRSMADVYAGNLSYDYVLGVYDFMERLCSRYPDLLLEGCSGGGGRFDAGMLYYSPQIWCSDNTDAINRTRIQYGTSFFYPVSAMGAHVSAVPNHQTGRVTSFHTRGVTAMAGTFGYELNPALLSDEEKQQIREQIKTYKKYETLINEGTYWRLSDPFTDEIAAWMSVSEEQDHALVSVVRLMAEANQATVYVRLRGLKPDAVYLEEQSGRQYSGAALMHAGIPLPPFTEEYEAYQFAFTELKEAGRLYEKVQKWCDGNAENRVVISIYGGSGSGKTTLATALQQYFLNDGTECYLLSGDDYPHRIPKRNDEERMRVYKEAGEDGLRGYLGTKKEIDFDRINEVLAAFHEGKDSITLRHMGREDGEISLEETDFSGISVLLLEWTHGGSDDLHGVDLPVFLESSPGETRERRIRRNRDENAASPFICRVVELEQEKLEVQRKNAGLIVGKDGSVYEQ
notes: full-length bifunctional enzyme (935 residues), produced in E. coli as in Bruel 2011, Ni-NTA and gel filtration, His-tag (C-terminal 6xHis given for recombinant proteins), tetramer
B2: RgAga (Mediterraneibacter gnavus) (protein)
chain: AIIYNPNKKIFTLHTAHTTYQMQVDPLGYLLHLYYGEKTNSSMDYVLTYADRGFSGNPYAAGMDRTYSLDALPQEYPSLGTGDYRNIALNIKNEKGVESADLLFKSYEIRNGKYRLQGLPAVWADEKEAQTLEIVLADENAQVEVHLLYGVLEENDVITRSVRIKNTGTGQITIEKAAAACLDFVQGEFDVLRFYGKHAMERNLERTPLGHGTIAFGSRRGTSSHQYNPAVILAEKGTTETAGSCYGMLFVYSGNFSCEAEKDQFNQTRLLLGLNEELFSYPLASGETFTVPEVILSYSAEGLSALSQQYHNCIRNHVCRSKYVHMQRPVLINSWEAAYFDFTGDTIVDLAKEAASLGIDMVVMDDGWFGKRNDDNSSLGDWQVNETKLGGSLAELITRVHEQGMKFGIWIEPEMINEDSDLYRAHPDWAIRIQGKKPVRSRNQLLLDFSRKEVRDCVFDQICVVLDQGKIDYVKWDMNRSMADVYAGNLSYDYVLGVYDFMERLCSRYPDLLLEGCSGGGGRFDAGMLYYSPQIWCSDNTDAINRTRIQYGTSFFYPVSAMGAHVSAVPNHQTGRVTSFHTRGVTAMAGTFGYELNPALLSDEEKQQIREQIKTYKKYETLINEGTYWRLSDPFTDEIAAWMSVSEEQDHALVSVVRLMAEANQATVYVRLRGLKPDAVYLEEQSGRQYSGAALMHAGIPLPPFTEEYEAYQFAFTELK
B3: RgSK (Mediterraneibacter gnavus) (protein)
chain: RLYEKVQKWCDGNAENRVVISIYGGSGSGKTTLATALQQYFLNDGTECYLLSGDDYPHRIPKRNDEERMRVYKEAGEDGLRGYLGTKKEIDFDRINEVLAAFHEGKDSITLRHMGREDGEISLEETDFSGISVLLLEWTHGGSDDLHGVDLPVFLESSPGETRERRIRRNRDENAASPFICRVVELEQEKLEVQRKNAGLIVGKDGSVYEQ
notes: isolated C-terminal sucrose kinase domain, Arg-724 to Gln-935, C-terminal His6 tag, E. coli BL21(DE3), pOPINE, 23,898 Da

Columns and labels:
[1] = substrate: Nc1ncnc2c1ncn2[C@@H]1O[C@H](COP(=O)(O)OP(=O)(O)OP(=O)(O)O)[C@@H](O)[C@H]1O; assay: bioluminescence ATP consumption assay (luciferin/luciferase); format: biochemical, Mediterraneibacter gnavus; conditions: sucrose 5 mM, pH 8.0, 30 °C, ATP 0-10 mM, […] enzyme
Excerpt: bioluminescence ATP consumption assay (luciferin/luciferase) on […]

purified protein = substrate: O=[N+]([O-])c1ccc(O[C@H]2O[C@H](CO)[C@H](O)[C@H](O)[C@H]2O)cc1; assay: purified protein; conditions: McIlvaine's buffer pH 6.0, 42 °C, pNPGal 0.078-10 mM
[2] = substrate: Nc1ncnc2c1ncn2[C@@H]1O[C@H](COP(=O)(O)OP(=O)(O)OP(=O)(O)O)[C@@H](O)[C@H]1O; assay: bioluminescence ATP consumption assay (luciferin/luciferase); format: biochemical, Mediterraneibacter gnavus; conditions: sucrose 5 mM, pH 8.0, 30 °C, ATP 0-10 mM, […] enzyme; remark: listed apart in the source
Excerpt: bioluminescence ATP consumption assay (luciferin/luciferase) on RgSK

Row | Protein | Km [1] [mM] | Vmax [1] [µmol/min] | kcat [1] [s⁻¹] | kcat/Km [1] [M⁻¹ s⁻¹] | Km (purified protein) [mM] | Vmax (purified protein) [µmol/min] | kcat (purified protein) [s⁻¹] | kcat/Km (purified protein) [M⁻¹ s⁻¹] | Km [2] [mM] | Vmax [2] [µmol/min] | kcat [2] [s⁻¹] | kcat/Km [2] [M⁻¹ s⁻¹]
1 | B1 | 8.4 ± 1.9 | 0.0983 | 38.1 ± 4.8 | 4530 | 1.3 ± 0.2 | 0.179 | 626 | 481000 | – | – | – | –
2 | B2 | – | – | – | – | 1.2 ± 0.2 | 0.236 | 827 | 689000 | – | – | – | –
3 | B3 | – | – | – | – | – | – | – | – | 6.3 ± 1.8 | 0.0719 | 27.9 ± 4.3 | 4420
